Results from publication PMC7617739, “Seo1p, a high-affinity, plasma membrane transporter of the γ-Glu-met dipeptide in yeasts and fungi” (The Journal of Biological Chemistry, 2025).

Substrate: CSCC[C@H](NC(=O)CC[C@H](N)C(=O)O)C(=O)O
Assay: cells, lysate or membranes

B1: Seo1p (Saccharomyces cerevisiae S288C) (protein)
chain: MYSIVKEIIVDPYKRLKWGFIPVKRQVEDLPDDLNSTEIVTISNSIQSHETAENFITTTSEKDQLHFETSSYSEHKDNVNVTRSYEYRDEADRPWWRFFDEQEYRINEKERSHNKWYSWFKQGTSFKEKKLLIKLDVLLAFYSCIAYWVKYLDTVNINNAYVSGMKEDLGFQGNDLVHTQVMYTVGNIIFQLPFLIYLNKLPLNYVLPSLDLCWSLLTVGAAYVNSVPHLKAIRFFIGAFEAPSYLAYQYLFGSFYKHDEMVRRSAFYYLGQYIGILSAGGIQSAVYSSLNGVNGLEGWRWNFIIDAIVSVVVGLIGFYSLPGDPYNCYSIFLTDDEIRLARKRLKENQTGKSDFETKVFDIKLWKTIFSDWKIYILTLWNIFCWNDSNVSSGAYLLWLKSLKRYSIPKLNQLSMITPGLGMVYLMLTGIIADKLHSRWFAIIFTQVFNIIGNSILAAWDVAEGAKWFAFMLQCFGWAMAPVLYSWQNDICRRDAQTRAITLVTMNIMAQSSTAWISVLVWKTEEAPRYLKGFTFTACSAFCLSIWTFVVLYFYKRDERNNAKKNGIVLYNSKHGVEKPTSKDVETLSVSDEK
Question: How did the Km turn out when B1 was run?
Answer: 48 µM
